Data taken from the RNAGym collection of RNA variant scans (doi:10.1093/molbev/msab373).

B1: Azoarcus group I ribozyme (parent)
chain: GUGCCUUGCGCCGGGAAACCACGCAAGGGAUGGUGUCAAAUUCGGCGAAACCUAAGCGCCCGCCCGGGCGUAUGGCAACGCCGAGCCAAGCUUCGGCGCCUGCGCCGAUGAAGGUGUAGAGACUAGACGGCACCCACCUAAGGCAAACGCUAUGGUGAAGGCAUAGUCCAGGGAGUGGCGAAAGUCACACAAACCGG

Variants of: B1
Test: reverse-splicing fitness (ratio to wild type); higher = more active; in vitro selection; Mg2+ level not given
Method in brief: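 An in vitro group I ribozyme library with randomized positions was T7-transcribed and gel-purified. In triplicate, 10 pmol RNA in EPPS pH 7.5 was reacted with 50 pmoles of a 30-nt RNA substrate for 1 h at 37 °C across several added MgCl2 levels (1–48 mM), then stopped with EDTA. Products were reverse transcribed from a substrate-complementary primer, PCR-amplified and sequenced (HiSeq 4000). Fitness is a variant's read proportion after selection over that before, normalised to wild type.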

Row | Variant | reverse-splicing fitness
1 | GUGCCUUGCGCCGGGAAACCACGCAAGGGAUGGUGUCAAAUUCGGCGAAACCUAAGCGCCCGCCCGGGCGUAUGGCAACGCCGAGCCAAGCUUCGGCGCCUGCGCCGAUGGAGGUGUAGUGACUAGACGGCACCCACCUAAGGCCAACGUUAUGGUGAAGGCAUAGUCAAGGGAGCGGCGAAAGUCACACAAACCGG [A111G A120U A145C C150U C169A U176C] | 0.00228
2 | GUGCCUUGCGCCGGGAAACCACGCAAGGGAUGGUGUCAAAUUCGGCGAAACCUAAGCGCCCGCCCGGGCGUAUGGCAACGCCGAGCCAAGCUUCGGCGCCUGCGCCGAUGGAGGUGUAGUGACUAGACGGCACCCACCUAAGGCCAACGUUAUGGUGAAGGCAUAGUCAAGGGAGGGGCGAAAGUCACACAAACCGG [A111G A120U A145C C150U C169A U176G] | 0.00196
3 | GUGCCUUGCGCCGGGAAACCACGCAAGGGAUGGUGUCAAAUUCGGCGAAACCUAAGCGCCCGCCCGGGCGUAUGGCAACGCCGAGCCAAGCUUCGGCGCCUGCGCCGAUGGAGGUGUAGUGACUAGACGGCACCCACCUAAGGCCAACGUUAUGGUGAAGGCAUAGUCGAGGGAGUGGCGAAAGUCACACAAACCGG [A111G A120U A145C C150U C169G] | 0.0196
4 | GUGCCUUGCGCCGGGAAACCACGCAAGGGAUGGUGUCAAAUUCGGCGAAACCUAAGCGCCCGCCCGGGCGUAUGGCAACGCCGAGCCAAGCUUCGGCGCCUGCGCCGAUGGAGGUGUAGUGACUAGACGGCACCCACCUAAGGCCAACGUUAUGGUGAAGGCAUAGUCGAGGGAGAGGCGAAAGUCACACAAACCGG [A111G A120U A145C C150U C169G U176A] | 0.00436
5 | GUGCCUUGCGCCGGGAAACCACGCAAGGGAUGGUGUCAAAUUCGGCGAAACCUAAGCGCCCGCCCGGGCGUAUGGCAACGCCGAGCCAAGCUUCGGCGCCUGCGCCGAUGGAGGUGUAGUGACUAGACGGCACCCACCUAAGGCCAACGUUAUGGUGAAGGCAUAGUCGAGGGAGCGGCGAAAGUCACACAAACCGG [A111G A120U A145C C150U C169G U176C] | 0.0028
6 | GUGCCUUGCGCCGGGAAACCACGCAAGGGAUGGUGUCAAAUUCGGCGAAACCUAAGCGCCCGCCCGGGCGUAUGGCAACGCCGAGCCAAGCUUCGGCGCCUGCGCCGAUGGAGGUGUAGUGACUAGACGGCACCCACCUAAGGCCAACGUUAUGGUGAAGGCAUAGUCGAGGGAGGGGCGAAAGUCACACAAACCGG [A111G A120U A145C C150U C169G U176G] | 0.00177
7 | GUGCCUUGCGCCGGGAAACCACGCAAGGGAUGGUGUCAAAUUCGGCGAAACCUAAGCGCCCGCCCGGGCGUAUGGCAACGCCGAGCCAAGCUUCGGCGCCUGCGCCGAUGGAGGUGUAGUGACUAGACGGCACCCACCUAAGGCCAACGUUAUGGUGAAGGCAUAGUCUAGGGAGUGGCGAAAGUCACACAAACCGG [A111G A120U A145C C150U C169U] | 0.0277
8 | GUGCCUUGCGCCGGGAAACCACGCAAGGGAUGGUGUCAAAUUCGGCGAAACCUAAGCGCCCGCCCGGGCGUAUGGCAACGCCGAGCCAAGCUUCGGCGCCUGCGCCGAUGGAGGUGUAGUGACUAGACGGCACCCACCUAAGGCCAACGUUAUGGUGAAGGCAUAGUCUAGGGAGAGGCGAAAGUCACACAAACCGG [A111G A120U A145C C150U C169U U176A] | 0.00601
9 | GUGCCUUGCGCCGGGAAACCACGCAAGGGAUGGUGUCAAAUUCGGCGAAACCUAAGCGCCCGCCCGGGCGUAUGGCAACGCCGAGCCAAGCUUCGGCGCCUGCGCCGAUGGAGGUGUAGUGACUAGACGGCACCCACCUAAGGCCAACGUUAUGGUGAAGGCAUAGUCUAGGGAGCGGCGAAAGUCACACAAACCGG [A111G A120U A145C C150U C169U U176C] | 0.00282
10 | GUGCCUUGCGCCGGGAAACCACGCAAGGGAUGGUGUCAAAUUCGGCGAAACCUAAGCGCCCGCCCGGGCGUAUGGCAACGCCGAGCCAAGCUUCGGCGCCUGCGCCGAUGGAGGUGUAGUGACUAGACGGCACCCACCUAAGGCCAACGUUAUGGUGAAGGCAUAGUCUAGGGAGGGGCGAAAGUCACACAAACCGG [A111G A120U A145C C150U C169U U176G] | 0.00212
11 | GUGCCUUGCGCCGGGAAACCACGCAAGGGAUGGUGUCAAAUUCGGCGAAACCUAAGCGCCCGCCCGGGCGUAUGGCAACGCCGAGCCAAGCUUCGGCGCCUGCGCCGAUGGAGGUGUAGUGACUAGACGGCACCCACCUAAGGCCAACGUUAUGGUGAAGGCAUAGUCCAGGGAGAGGCGAAAGUCACACAAACCGG [A111G A120U A145C C150U U176A] | 0.0932
12 | GUGCCUUGCGCCGGGAAACCACGCAAGGGAUGGUGUCAAAUUCGGCGAAACCUAAGCGCCCGCCCGGGCGUAUGGCAACGCCGAGCCAAGCUUCGGCGCCUGCGCCGAUGGAGGUGUAGUGACUAGACGGCACCCACCUAAGGCCAACGUUAUGGUGAAGGCAUAGUCCAGGGAGCGGCGAAAGUCACACAAACCGG [A111G A120U A145C C150U U176C] | 0.055
13 | GUGCCUUGCGCCGGGAAACCACGCAAGGGAUGGUGUCAAAUUCGGCGAAACCUAAGCGCCCGCCCGGGCGUAUGGCAACGCCGAGCCAAGCUUCGGCGCCUGCGCCGAUGGAGGUGUAGUGACUAGACGGCACCCACCUAAGGCCAACGUUAUGGUGAAGGCAUAGUCCAGGGAGGGGCGAAAGUCACACAAACCGG [A111G A120U A145C C150U U176G] | 0.0448
14 | GUGCCUUGCGCCGGGAAACCACGCAAGGGAUGGUGUCAAAUUCGGCGAAACCUAAGCGCCCGCCCGGGCGUAUGGCAACGCCGAGCCAAGCUUCGGCGCCUGCGCCGAUGGAGGUGUAGUGACUAGACGGCACCCACCUAAGGCCAACGCUAUGGUGAAGGCAUAGUCAAGGGAGUGGCGAAAGUCACACAAACCGG [A111G A120U A145C C169A] | 0.00532
15 | GUGCCUUGCGCCGGGAAACCACGCAAGGGAUGGUGUCAAAUUCGGCGAAACCUAAGCGCCCGCCCGGGCGUAUGGCAACGCCGAGCCAAGCUUCGGCGCCUGCGCCGAUGGAGGUGUAGUGACUAGACGGCACCCACCUAAGGCCAACGCUAUGGUGAAGGCAUAGUCAAGGGAGAGGCGAAAGUCACACAAACCGG [A111G A120U A145C C169A U176A] | 0.00226
